Measurements reported in the nanobody polyreactivity screen of Harvey et al. (2022).

Assay: yeast display, Sf9 membrane polyspecificity reagent, FACS + sequencing; frameworks hold sequencing errors
Procedure, shortened: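 Synthetic nanobody libraries on Saccharomyces cerevisiae BJ5465 were galactose-induced for 36–48 hours, stained 1 hour at 4 °C with 10% biotinylated, detergent-solubilized Sf9 membrane reagent and enriched on streptavidin microbeads. FACS then separated cells into low and high (top ~1%) gates by anti-HA (expression) and streptavidin (reagent binding) fluorescence. Genes were colony-PCR amplified, MiSeq 2 × 250 sequenced and CDR-length filtered. A clone's polyreactivity label is that of its gate of origin.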

Row | Sequence | polyreactivity (PSR sort gate)
1 | QVQLGESGGGLVQAGGSLRLSCAASGRIFYKNTMGWYRQAPGKERELVAAISWRGGSTYYADSVKGRFTISRDNAKNTVYLQMNSLKPEDTAVYYCNADIWAYKYDYWGQGTQVTVSS | high polyreactivity
2 | QVQLGESGGGLVQAGGSLRLSCAASGRTCWPYARGWYRQAPGKEMELVAAISRGDRTHYADSVKGRFTISRDNAKKTVYLQMNSLIPEVTAVFYCAADSRYYYYVYKISGDYDSWGQGTHVTVSS | low polyreactivity
3 | QVQLGESGGGLVQAGGSLRLSCAASGSIFGSYAMGWYRQAPGKERELVAAISKSGGNTYYADSVKGRFTISRDNAKNTDYLQMNSLKPEDTAVYYCAAYGFYRWRGYDYWGQGTQVTLSS | high polyreactivity
4 | QVQLGESGGGLVQAGGSLRLSCAASGSIFGYYAMGWYRQAPGKERELVAAINYSGVSTYYADSVKGRFTISRDNAKNTVYLQMNSLKPEDTAVYYCAALRLYEPGPYGGPLRYGYWGQGTQVTVSS | high polyreactivity
5 | QVQLGESGGGLVQAGGSLRLSCAASGSIFIGNAMGWYRQAPGKERELVAAITGRGGRTYYADSVKGRFTISRDNAKNTVYLQMNSLKTEDTAVYYCNAVARQFLYGYWGEGTQVTVSS | high polyreactivity
6 | QVQLGESGGGLVQAGGSLRLSCAASGSIFKWYAMGWYRQAPGKERELVAAISASGGSTYYADSVKGRFTISRDNAKNSVYLQMNSLKPEDTAVYYCNTDHYYSSRHYDYWGQGTQVTVSS | low polyreactivity
7 | QVQLGESGGGLVQAGGSLRLSCAASGSIFRRYARGWYRQAPGKERELVAAISSSGGRTYYADSVKGRFTISRDNAKNTVYLQMNSLKPEETAVYYCAKDTYGFAANRPAGDGYWGQGTQVTVSS | high polyreactivity
8 | QVQLGESGGGLVQAGGSLRLSCAASGSTFERYSMGWYRQAPGKERELDAAINWSGGGTYYADSVKGRFTISRDNAKNTVYLQMNSLKPEDTAVYYCAADSGNVVFSLWWYEYYYWGQGTQVTVSS | low polyreactivity
9 | QVQLGESGGGLVQAGGSLRLSCAASGSTFPRYVMGWYRQAPGKERELVAAISSSSGRTFYADSVKGRFTISRDNAKNTVYLQMNSLKPEDTAVYYCAARTSFNVHYWGQGTQVTVSS | high polyreactivity
10 | QVQLGESGGGLVQAGGSLRLSCAASGSTFSCYAMGWYRQAPGKEREFVAAISWSGGSTYYADSVKGRFTISRDTAKNTVYLQMNSLKPEDTEVYYCAATRRGPYWWFGYDYWGQGTQVTVSS | high polyreactivity
11 | QVQLGESGGGLVQAGGSLRLSCAASGSTFYPYAIGWYRQAPGKERELVARITRGDGSTYYADSVKGRFTISRDNAKNTVYVQMNSLKPEDTAVYYCIRVEYYTVWGYDYWGQGTQVTVSS | low polyreactivity
12 | QVQLGESGGGLVQAGGSLRLSCAASGYIFRIYAMGGYRQAPGKERELVAAISRSGGSTSYADSVKGRFTISRDTAKNTVYLQMNSLKPEDTAVYYCATEIRPSRIAQYDYWGQGTQVTVSS | high polyreactivity
13 | QVQLGESGGGLVQAGGSLRLSCSASMGWNSQAPGKERELVAITRTTRTYYADSVKGRFTISRDNAKNTVYLQMNSLKPEDTAVYYCAAPNGPSPYWYNYWGQGTQVTVSS | low polyreactivity
14 | QVQLGESGGGLVQAGGSLRLTCAAYGRIYGGNAMGWYRQATGKEWELDAGISRRGGSTYYADSVKGRFTISRDNEKNTVYLQMNRLKPEDTAVYYCYAYYRYSVFAEKYDYWGQGTHVTVSS | high polyreactivity
15 | QVQLGESGGGLVQAGGTLRVSCAPSGITFYGYAMGWYRQAPGKERELVAAINRGGTGTYYADSVKGRFTISRDNAKNTVYLQMNSLKPEDTAVYYCNKAGYPIADPTAGKRQFDNWGHGTQVTVSS | low polyreactivity
16 | QVQLGESGGGLVQSGGSLRLSCAASGRTFCYYAMGWYRQAPGKERELVAAITNRGGNKYYADSVKGRFTISRDNAKNTVYLQMNSLKPEDTAVYYCAAYNRIYGYHTLYYWGQGTQVTVSS | high polyreactivity
17 | QVQLGESGRGLVQEGGSLGLICAASGGIFKYNAMGWYRQAPGKERELVAAIRSTGSTYADSVKGRFTISRDNAKNTVYLQMNSLKPEDTAVYYCAAQYWRRKKYYYWGQGTQVTVSS | high polyreactivity
18 | QVQLGESRRGLVQAGGSLRLSCAASGITFWYNATGWYRQSPGKERELDAAISRSAGSTYYADSVKGRFTISRDNAKNTVYLQMNSLKPEDTAVYYCAAKTPGRYYYWGQGTQVTVSS | high polyreactivity
19 | QVQLHESGGGLVQAGGSLRLSCAASGTISYAGPMGWYRQAPGKEREFVAAIGVGSNTNYADSVKGRYTIIRDNAKNTVYLQMNSLKPEDTAVYYCAVGGYAPLGRPYWCQGTQVTVSS | low polyreactivity
20 | QVQLHESGGGLVQAGGSLRMSCAASGTISVTYNKGWYRQAPGKEREFVAGNSTGATTNYADSVKGRFTISRDNAKNCVYLQMNSLKPDDTAVYYCAAHIYRQDHFYYWGQGTQVTVSS | low polyreactivity
21 | QVQLHESGGGLVQSGGSLRLSCAASGTISYAGPMGWYPQAPGKEREFVAGIGVGSNTNYADSVKGRYTIIRDNAKNTVYLQMNSLKPVDTAVYYCAVGGYAPLGRPYCGQGTQVTVSS | low polyreactivity
22 | QVQLHESGGGMVQAGGSLRLSCAASGTISYAGPMGWYRQAPGKEREFVAGIGVGSNTNYADSVKGRYTIIRDNAKNTVYLKMNSLKPEDTAVYYCGVGVYAQLGRPYWGQGTQVTVSS | low polyreactivity

Row | Sequence | polyreactivity (PSR sort gate)
23 | QVQLHESGSGLVQAGGSLRLSCAASGAIFPANLMGWYRQAPGKERELVAGISYGSITYCADSVKGRFNISRDNAKHTVYLQMNSLKPEDTAVYYCEVWRPGGDEYYYWGQGTQVTVSS | low polyreactivity
24 | QVQLLDSGGGLVQAGGSLRLSCDASGRTIDIYAMGWYRQAPGKERELVAAISSGGSTYYADSVKGRFTISRDNAKNTVYLQMNSLKPEDTAVYYCAVRWYDQVSRRGIGYYWGQGTQVTVSS | low polyreactivity
25 | QVQLLEAGGGLVQAGGSLRFSCAHSGSIVSHYAIGWYRQAPGKERELVAAITGGGITYYADSVKGRFTISRDNAKNTVYLQMNSLKPEDTAVDYCDTDSLMFTIYDYWGQGTQVTVSS | low polyreactivity
26 | QVQLLESAGGLVQAGGSLRLRCSASGYISCDASMGWYRHAPGKERELAASITKGSSTNYADSEKGRFTIRDNAINTVYLQMNSLKPEDTAVCYCAVTYPYWGDYTYWGHGTQVTVSS | low polyreactivity
27 | QVQLLESGAGLVQAGGSLRLICAASVNTFYWYAMGRYRQAPGKERELVAAITWSGGSTHYADSVKGRFTISRDNAKNTVYLQMNSLTPEYTAVYYCAARYFRWWDMGYWGQGTQVSVSS | high polyreactivity
28 | QVQLLESGCGLVQAGGSLSIRCAATGFIFIFIAMGWSRQATGTERELVAAIDTSDDSTYYADSVMGRFTISRDNAKNTVYLQMNRLKTEDTAVYYCAAEELSNYEYWGQGTQVTVSS | low polyreactivity
29 | QVQLLESGGGFVQEGGSLRLICAASGLTFYYNAMGWYRQAPGTERELVAAISFSGGRTYYADSVKGRFTISRDNAQNTVYLQMNSLKPEDTAVYYCAARVPRYRKDSVWAYYYWGQGTQVTVSS | high polyreactivity
30 | QVQLLESGGGLDQAGGTLRLSWAASGIIFSFYTMGWYRQAPGKERELVAAITWSGGSTYYADSVKGRFTISRDNAKNTVYLQMNSLKPDDTAVYYCIARNPGRKRSQGYSWGQGTQVTVSS | low polyreactivity
31 | QVQLLESGGGLDQARGSLRLSCAASGITFEYNAMGWYRQAPGKERELVAAISLSSGSTYYADSVKGRFTISRDNAKNTVYLQMNSLKPEDTAVYYGNADTIIYEGGYWGQGTQVTVSS | low polyreactivity
32 | QVQLLESGGGLVKAGGCRRLSCAASGSTLTPYTMGWYSEAPGIERELVAAMTQCGGTTYYADSVKGRFTISRDNAQNTVYVQMNSLKPEDTAVYYCAARSYGSTSPIRVQLYYWGQGTQVTVSS | high polyreactivity
33 | QVQLLESGGGLVLAGGSLRLSCAASGRIFNLYAMGWYRQAPGKERELVAAITDIGSSTYYADSVKGRFTISRDNAKNTVYLQMNSLKPEDTAVYYCNAVVKSSSRGSIAHPGYDYWGQGTQVTVSS | high polyreactivity
34 | QVQLLESGGGLVPSGGSLRLSCAASGLTLYTYAMGWYRQAPGKERELVAAISKNGGRTYYADSVKGRFTISRDNAKITVYLQMNSLKPEDTAVYYCADRARVGTVTFDYWGQGTQVTVSS | low polyreactivity
35 | QVQLLESGGGLVPSRGSLRLSCAASGFTFAHYAMGWYRQAPGKERELVAAISGSGSSTYYADSVKGRFTISRDNAKNNVYLQMNSLKPEDTADYYCNVRWYFLYDYWGQGTQVTVSS | low polyreactivity
36 | QVQLLESGGGLVQAGCSLRLSCAASGFIFSYAMGWYRQAPGKERQLVAAISKSGCRTYYADSVKGRFTISRDNAKNTVYLQMNSMKPEDTEVYYCAVRDLHLSNARYNFWGQGNQVTVSS | high polyreactivity
37 | QVQLLESGGGLVQAGGCLRLRCAASVRTFEQNAMGWCRRAPGKERELVASITSVGSTDYADSVKGRFTISRDNAKNTVYLQMNSLKPEDTAGYYCAKTLGSQNYDFDYWGQGTQVTVSS | low polyreactivity
38 | QVQLLESGGGLVQAGGILRLSCAASGSTFYPYAMGWSRQAPGKDRELVAAITGTGGSTYYADSVKGRFRISLDNAKNTVDLQMNSLKPEDPAVYYCATRRRYYYSGYNYWGQGTQVTVSS | high polyreactivity
39 | QVQLLESGGGLVQAGGSLRESCAASGSMFSHNTMGWYRQAPGKERELVATINWRATYYADSVKGRFTISRDNAKNTVYLQMNSLKPEDTAGYYCNKDRQRYGEDYWGQGTQVTVSS | high polyreactivity
40 | QVQLLESGGGLVQAGGSLRISCASSGRTFSSNTMGRYRQAPGKERELVAAISSTDSTYYADSVKGRYTISRDNAKNTVYLQMNSLKPEDTAVYYCAKRPTRRYGYWGQGTQVTVSS | high polyreactivity
41 | QVQLLESGGGLVQAGGSLRLICAASGRIIYGYAMGWYRQAPGKERELVAAITATYYADSVKGRFTISRDNAKNTVYLQMKSLKPVDSGVYYCNAYLSPKQPLSTPDPSFEGGYWGQGTQVTVSS | low polyreactivity
42 | QVQLLESGGGLVQAGGSLRLRCASSGSISDWNAMGWYRQAPGKERELVAAISRGGNTNYADSVKGRFTISRDNAKNTVYLQMNSLKPEDTAVYYCAAGHGSLRYNYWGQGTQVSVSS | high polyreactivity
43 | QVQLLESGGGLVQAGGSLRLSCAASGFIFPGYAMGWYRQAPGKEREFVAAITSRGGSTYYADSVKGRFTISRDNAKNTVYLQMNSLKPEDTAVYYCAARNFLSRRGTYDYWGQGTQVTVSS | high polyreactivity
